Measured values as given in US20070253967A1, “Agent for the treatment and/or prophylaxis of microcirculatory disorders” (priority 1997, published 2007).

Molecular target: T1, fibrinogen (Homo sapiens, UniProt P02675+P02679)
T1 construct: then loaded with heparinized plasma (40 ml); from tissue; host or cells: heparinized plasma
Assay: Specifity of the coupled Sepharose by SDS gel electrophoresis
Format: binding
Conditions: statement in the description
Procedure: The pentapeptide Gly-Pro-Arg-Pro-Lys was synthetized as trifluoracetate and coupled to cyanobromide-active Sepharose CL-4B. The specifity of the coupled Sepharose was tested by means of SDS gel electrophoresis.

T1 sequence (P02671 20-629 partner limits assumed): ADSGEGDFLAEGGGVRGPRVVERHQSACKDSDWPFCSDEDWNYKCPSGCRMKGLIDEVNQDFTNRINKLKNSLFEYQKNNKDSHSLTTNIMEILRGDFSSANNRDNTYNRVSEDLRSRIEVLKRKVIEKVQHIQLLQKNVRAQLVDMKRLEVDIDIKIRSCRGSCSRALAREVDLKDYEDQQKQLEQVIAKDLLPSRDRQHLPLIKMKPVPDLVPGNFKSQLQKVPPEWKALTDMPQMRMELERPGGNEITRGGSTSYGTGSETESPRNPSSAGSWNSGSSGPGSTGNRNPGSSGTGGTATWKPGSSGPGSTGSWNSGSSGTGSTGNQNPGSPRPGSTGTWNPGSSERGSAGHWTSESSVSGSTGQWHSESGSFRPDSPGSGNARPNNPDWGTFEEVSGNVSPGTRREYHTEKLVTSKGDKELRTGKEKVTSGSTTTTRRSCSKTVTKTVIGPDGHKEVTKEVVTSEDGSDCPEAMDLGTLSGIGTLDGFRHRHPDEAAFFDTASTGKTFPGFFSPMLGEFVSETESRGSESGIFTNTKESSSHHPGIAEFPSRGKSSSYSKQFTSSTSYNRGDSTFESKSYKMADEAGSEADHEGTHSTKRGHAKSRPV
T1 sequence (P02675 31-491): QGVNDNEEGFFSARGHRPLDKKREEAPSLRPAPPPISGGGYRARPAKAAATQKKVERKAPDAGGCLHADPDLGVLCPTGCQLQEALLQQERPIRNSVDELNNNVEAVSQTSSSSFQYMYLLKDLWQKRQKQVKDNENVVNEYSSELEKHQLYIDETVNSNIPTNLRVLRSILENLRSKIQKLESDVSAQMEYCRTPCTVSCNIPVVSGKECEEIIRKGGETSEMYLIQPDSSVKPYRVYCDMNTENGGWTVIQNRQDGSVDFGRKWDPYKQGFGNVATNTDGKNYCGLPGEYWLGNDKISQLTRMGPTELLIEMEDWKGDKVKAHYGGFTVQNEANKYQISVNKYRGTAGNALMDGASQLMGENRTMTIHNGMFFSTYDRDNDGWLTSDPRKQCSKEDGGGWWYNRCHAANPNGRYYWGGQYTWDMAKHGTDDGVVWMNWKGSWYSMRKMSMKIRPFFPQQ
T1 sequence (P02679 27-453): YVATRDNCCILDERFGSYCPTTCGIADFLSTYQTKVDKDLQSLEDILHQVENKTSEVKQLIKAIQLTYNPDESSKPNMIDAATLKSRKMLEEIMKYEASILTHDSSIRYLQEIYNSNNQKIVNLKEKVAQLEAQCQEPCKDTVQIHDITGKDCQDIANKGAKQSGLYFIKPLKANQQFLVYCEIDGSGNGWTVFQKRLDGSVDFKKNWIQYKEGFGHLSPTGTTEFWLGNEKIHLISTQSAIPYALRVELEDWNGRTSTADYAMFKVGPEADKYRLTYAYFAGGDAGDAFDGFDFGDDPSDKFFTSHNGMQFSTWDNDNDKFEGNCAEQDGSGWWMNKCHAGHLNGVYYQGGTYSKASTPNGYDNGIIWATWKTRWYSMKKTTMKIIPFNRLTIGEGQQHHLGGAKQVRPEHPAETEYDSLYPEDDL

## Gly-Pro-Arg-Pro-Lys (GPRPK; printed: Gly-Pro-Arg-Pro-Lys) [pentapeptide ligand for fibrinogen and/or fibrin]
  specifity for fibrinogen and/or fibrin: very high specifity
